Results on one molecule are retold here after article PMC9651861 (Science Advances, 2022).

In this experiment the target is T1, Trimeric His-Tagged SARS-CoV-2 Spike Glycoprotein, labelled with Alexa Fluor 647 (SARS-CoV-2, original (Wuhan-Hu-1) strain, UniProt P0DTC2, Alexa Fluor 647 (N-hydroxysuccinimide ester), estimated 13:1 dye to protein).
T1 construct: also called full trimeric spike protein; spike protein
Put plainly: MST. The following applies: both partners purified.

B1: DesAb-HSA-P2 (VHH)
VHH: EVQLEESGGGLVQPGGSLRLSCAASGFNIKDTYIGWVRQAPGKGEEWVASIYPTSGYTRYADSVKGRFTISADTSKNTAYLQMNSLRAEDTAVYYCAAGSAQAGNAEEAEEEFDYWGQGTLVTVSS
Consider B1, for which the binding result was “no binding (tested: 4 μM)”.
